Measurements from the supplement of paper PMC9170038.

Tested on: MS2 coat protein
Assay: apparent KD of MS2 coat protein; designed switch direction (-1 OFF switch, 1 ON switch): -1; higher = weaker reporter binding
Summary of the method: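 Apparent KD, taken as the median over clusters for each design, was obtained by curve-fitting normalised cluster fluorescence. Designed RNA switches had been transcribed on Illumina chips by stalled E. coli RNA polymerase and titrated with SNAP-549-labelled MS2 coat protein, doubling from 0.7 or 1.5 nM to 3 µM.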

[1] = input ligand: microRNA oligo, concentration not stated

| Sequence | apparent KD of MS2 coat protein (input ligand: FMN 200 uM) [nM] | apparent KD of MS2 coat protein [1] [nM] | apparent KD of MS2 coat protein (input ligand: none) [nM] |
| --- | --- | --- | --- |
| ACAUGAGGAUCACCCAUGUCAGGCUGGUCCGCUCCGGCUGUUGAGGAUAUAGCCCGGUAUCCGCGCUAGAAGGUGAGGGCCGGC [Aenatbe mod 28] (Eterna round: R96, puzzle: Exclusion NG 3) | 24.8 | 26.3 | 28.4 |
| ACAUGAGGAUCACCCAUGUCAGGCUGGUCCGCUCCGGCUGUUGAGGAUAUAGCUCGGUGUCCGCGCUAGAAGGUGAGGGCCGGC [Aenatbe mod 32] (Eterna round: R96, puzzle: Exclusion NG 3) | 25.3 | 19.3 | 24.6 |
| ACAUGAGGAUCACCCAUGUCCGGCUGGUCCGUCUCGGCUGUCGAGGAUAUAGCUUGGUGUCCGCGCUAGAAGGUGGGAGCUGGU [Aenatbe mod 69] (Eterna round: R96, puzzle: Exclusion NG 3) | 99.7 | 53.1 | 96.6 |
| ACAUGAGGAUCACCCAUGUCCGGCUGGUCUGGUCCGGCUGUCGAGGAUAUAGUCCGGUGUUCGCGCUAGAAGGCGAGGGCUGGA [Aenatbe mod 49] (Eterna round: R96, puzzle: Exclusion NG 3) | 109 | 68.3 | 97.5 |
| ACAUGAGGAUCACCCAUGUCCGGCUGGUCUGUCUCGGCUGUCGAGGAUAUAGCACGGUAUCCGCGCUAGAAGGCGGGAGCCGGA [Aenatbe mod 86] (Eterna round: R96, puzzle: Exclusion NG 3) | 120 | 47.1 | 38.8 |
| ACAUGAGGAUCACCCAUGUCCGGCUGGUCUGUUCCGGUUGUCGAGGAUAUAGUUCGGUGUUCGCGCUAGAAGGUGGGAGCUGGG [Aenatbe mod 55] (Eterna round: R96, puzzle: Exclusion NG 3) | 308 | 163 | 190 |
| ACAUGAGGAUCACCCAUGUCCGUCUGGUCUGUCUCGGCUGUCGAGGAUAUAGCUCGGUAUCCGCGCUAGAAGGCGGGAGUCGGG [Aenatbe mod 95] (Eterna round: R96, puzzle: Exclusion NG 3) | 36.1 | 60.9 | 61.9 |
| ACAUGAGGAUCACCCAUGUCGACGAAAAGGCUCAUGUAGAGUGAGGAUAUGUGAGACGAACGAGAACAGAAGGCACAAGACAGG [Deportation 4 - Jieux - Exclusion NG 3] (Eterna round: R96, puzzle: Exclusion NG 3) | 85.8 | 58.9 | 52.3 |
| ACAUGAGGAUCACCCAUGUCGAGUACAUGAGGAUCACCCAUGUAGGAUAUGGUUCGCUUUGCGUGCUAGAAGGAUAUGUGAUGG [salish99_ExNG3_r04_513] (Eterna round: R96, puzzle: Exclusion NG 3) | 396 | 217 | 329 |
| ACAUGAGGAUCACCCAUGUCUGGCGGGUCCUCUCCGGCUGUUGAGGAUAUAGUCCGGUAUCCGCGCUAGAAGGUGAGGGCCGGC [Aenatbe mod 19] (Eterna round: R96, puzzle: Exclusion NG 3) | 21.8 | 13.8 | 23.5 |
| ACAUGAGGAUCACCCAUGUCUGGCUGGUCCGCUCCGGCUGUUGAGGAUAUAGUUCGGUGUCCGCGCUAGAAGGUGAGGGCUGGC [Aenatbe mod 35] (Eterna round: R96, puzzle: Exclusion NG 3) | 21.8 | 21.2 | 31.3 |
| ACAUGAGGAUCACCCAUGUCUGGCUGGUCCGUCUCGGCUGUCGAGGAUAUGGCUCGGUGUCCGCGCUAGAAGGCGGGAGCUGGC [Aenatbe mod 80] (Eterna round: R96, puzzle: Exclusion NG 3) | 75.2 | 46.2 | 89.3 |
| ACAUGAGGAUCACCCAUGUGAAAACAAUGGCUGACAAAGAGAUAGGAUAUAUGUGCAUAUCAAACAUAGAAGGGUCAUUACUGG [Deportation 87 - Jieux - Exclusion NG 3] (Eterna round: R96, puzzle: Exclusion NG 3) | 42.7 | 42.5 | 49.8 |
| ACAUGAGGAUCACCCAUGUGAAAAGAAUGGCUGACACAGAGAUAGGAUAUAUGUGCAUAUCAAACAUAGAAGGGUCAUAACUGG [Deportation 84 - Jieux - Exclusion NG 3] (Eterna round: R96, puzzle: Exclusion NG 3) | 28.4 | 29.4 | 30.5 |
| ACAUGAGGAUCACCCAUGUGACAACAAUGGCUGAUAUAGAAACAGGAUAUUCGUGAAUAUCUAACGAAGAAGGGUUAUGACUGG [Deportation 66 - Jieux - Exclusion NG 3] (Eterna round: R96, puzzle: Exclusion NG 3) | 50.4 | 43.1 | 54.1 |
| ACAUGAGGAUCACCCAUGUGACAAGAAUGGCUGAUAAAGAGACAGGAUAUAGGUGCAUAUCUAACCUAGAAGGGUCAUGACUGG [Deportation 74 - Jieux - Exclusion NG 3] (Eterna round: R96, puzzle: Exclusion NG 3) | 38.5 | 28.3 | 38.1 |
| ACAUGAGGAUCACCCAUGUGACAAGAAUGGCUGAUACAGAGACAGGAUAUAGGUGCAUAUCUAACCUAGAAGGGUCAUGACUGG [Deportation 73 - Jieux - Exclusion NG 3] (Eterna round: R96, puzzle: Exclusion NG 3) |  | 26.6 |  |
| ACAUGAGGAUCACCCAUGUGACCACAAUGGCUGAUGUAGAAACAGGAUAUUCGUGAAUAUCUAACGAAGAAGGGUUAUGACUGG [Deportation 64 - Jieux - Exclusion NG 3] (Eterna round: R96, puzzle: Exclusion NG 3) | 62.9 | 61.7 | 72.1 |
| ACAUGAGGAUCACCCAUGUGCACGUAAUGGCUCAUGUAGAGAGAGGAUAUGCGUGACGAACGAGCGCAGAAGGCUCAAGACUGG [Deportation 15 - Jieux - Exclusion NG 3] (Eterna round: R96, puzzle: Exclusion NG 3) | 114 | 66.2 | 73.1 |
